Target: T1, Centromere protein F (CENPF) (human, UniProt P49454 1-3111, limits assumed)
T1 construct: also called CENF; PRO 1779
Assay: co-immunoprecipitation

T1 sequence (P49454 1-3111 limits assumed): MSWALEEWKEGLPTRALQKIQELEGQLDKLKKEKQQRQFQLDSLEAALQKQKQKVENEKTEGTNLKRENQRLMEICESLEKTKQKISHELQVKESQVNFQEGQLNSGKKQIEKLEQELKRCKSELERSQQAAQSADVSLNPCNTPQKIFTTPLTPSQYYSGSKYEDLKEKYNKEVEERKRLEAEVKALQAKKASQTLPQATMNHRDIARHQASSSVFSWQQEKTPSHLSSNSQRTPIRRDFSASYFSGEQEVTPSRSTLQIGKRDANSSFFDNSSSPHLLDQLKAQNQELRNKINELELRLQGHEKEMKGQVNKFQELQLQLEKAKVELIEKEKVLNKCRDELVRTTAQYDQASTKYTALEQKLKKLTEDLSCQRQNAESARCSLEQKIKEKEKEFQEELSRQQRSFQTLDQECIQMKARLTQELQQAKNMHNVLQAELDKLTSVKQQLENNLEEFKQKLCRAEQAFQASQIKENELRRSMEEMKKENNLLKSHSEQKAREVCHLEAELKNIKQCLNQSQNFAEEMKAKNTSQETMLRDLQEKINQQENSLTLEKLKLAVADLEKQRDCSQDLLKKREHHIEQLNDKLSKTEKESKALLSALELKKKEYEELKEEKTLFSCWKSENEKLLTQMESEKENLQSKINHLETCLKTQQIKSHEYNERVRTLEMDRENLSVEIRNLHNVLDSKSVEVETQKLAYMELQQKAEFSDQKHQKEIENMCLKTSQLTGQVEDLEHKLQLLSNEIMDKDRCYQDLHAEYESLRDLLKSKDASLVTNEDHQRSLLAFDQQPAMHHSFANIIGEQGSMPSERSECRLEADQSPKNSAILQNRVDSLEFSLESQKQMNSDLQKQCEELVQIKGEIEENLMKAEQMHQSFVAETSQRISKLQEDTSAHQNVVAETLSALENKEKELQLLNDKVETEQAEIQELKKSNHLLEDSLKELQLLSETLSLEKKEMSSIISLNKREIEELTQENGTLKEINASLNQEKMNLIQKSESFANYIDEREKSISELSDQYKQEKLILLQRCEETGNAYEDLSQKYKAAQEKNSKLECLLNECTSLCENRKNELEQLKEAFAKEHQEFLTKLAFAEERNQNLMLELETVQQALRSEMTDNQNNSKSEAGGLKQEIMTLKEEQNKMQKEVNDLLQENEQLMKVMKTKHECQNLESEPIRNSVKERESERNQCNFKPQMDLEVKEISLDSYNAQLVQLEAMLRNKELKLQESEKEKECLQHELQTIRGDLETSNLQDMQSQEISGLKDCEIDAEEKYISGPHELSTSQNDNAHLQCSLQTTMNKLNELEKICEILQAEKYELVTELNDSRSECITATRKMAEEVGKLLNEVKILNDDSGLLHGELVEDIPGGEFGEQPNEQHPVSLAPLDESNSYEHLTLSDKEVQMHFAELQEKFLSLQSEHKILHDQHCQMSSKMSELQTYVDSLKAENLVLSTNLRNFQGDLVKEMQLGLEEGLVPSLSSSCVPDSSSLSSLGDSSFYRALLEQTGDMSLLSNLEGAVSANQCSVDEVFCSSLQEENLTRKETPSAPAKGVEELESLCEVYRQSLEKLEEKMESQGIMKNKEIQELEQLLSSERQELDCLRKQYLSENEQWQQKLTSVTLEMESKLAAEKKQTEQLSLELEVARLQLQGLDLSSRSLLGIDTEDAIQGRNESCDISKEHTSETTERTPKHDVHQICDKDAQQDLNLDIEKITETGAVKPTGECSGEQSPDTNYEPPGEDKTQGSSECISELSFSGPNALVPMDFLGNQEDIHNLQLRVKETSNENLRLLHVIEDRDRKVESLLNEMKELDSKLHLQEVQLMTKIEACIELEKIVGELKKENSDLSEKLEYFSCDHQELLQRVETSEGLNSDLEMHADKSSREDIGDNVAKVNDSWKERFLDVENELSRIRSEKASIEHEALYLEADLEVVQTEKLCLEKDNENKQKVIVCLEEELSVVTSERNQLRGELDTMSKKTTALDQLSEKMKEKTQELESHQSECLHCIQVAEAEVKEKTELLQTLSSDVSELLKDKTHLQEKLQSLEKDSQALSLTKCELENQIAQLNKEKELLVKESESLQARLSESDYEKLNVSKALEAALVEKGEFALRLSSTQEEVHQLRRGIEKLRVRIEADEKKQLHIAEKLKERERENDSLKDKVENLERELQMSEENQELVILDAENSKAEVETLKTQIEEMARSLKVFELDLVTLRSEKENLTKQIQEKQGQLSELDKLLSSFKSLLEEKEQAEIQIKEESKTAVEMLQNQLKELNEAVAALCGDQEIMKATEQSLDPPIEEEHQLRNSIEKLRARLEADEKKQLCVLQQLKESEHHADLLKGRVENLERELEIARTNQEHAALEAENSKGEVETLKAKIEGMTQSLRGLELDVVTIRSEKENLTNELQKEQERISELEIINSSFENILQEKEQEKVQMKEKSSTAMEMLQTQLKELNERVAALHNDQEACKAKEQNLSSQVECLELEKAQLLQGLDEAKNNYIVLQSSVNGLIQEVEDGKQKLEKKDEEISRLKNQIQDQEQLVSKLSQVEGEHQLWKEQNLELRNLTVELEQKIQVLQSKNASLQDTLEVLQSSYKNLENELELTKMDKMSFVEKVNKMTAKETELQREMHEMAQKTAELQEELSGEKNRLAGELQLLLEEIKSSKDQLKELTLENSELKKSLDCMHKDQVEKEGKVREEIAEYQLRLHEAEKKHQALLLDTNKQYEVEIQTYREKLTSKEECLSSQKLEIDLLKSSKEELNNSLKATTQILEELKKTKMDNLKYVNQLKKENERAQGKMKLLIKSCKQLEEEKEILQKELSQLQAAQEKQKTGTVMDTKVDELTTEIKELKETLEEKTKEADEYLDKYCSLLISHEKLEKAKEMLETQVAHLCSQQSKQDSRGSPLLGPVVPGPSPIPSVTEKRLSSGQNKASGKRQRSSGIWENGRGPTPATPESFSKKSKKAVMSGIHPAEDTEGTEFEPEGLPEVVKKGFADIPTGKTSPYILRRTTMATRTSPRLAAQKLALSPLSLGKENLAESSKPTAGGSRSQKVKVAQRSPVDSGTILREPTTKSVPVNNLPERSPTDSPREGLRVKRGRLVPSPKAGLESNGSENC

B1: Forkhead box protein M1 (FOXM1) (other)
chain: MKTSPRRPLILKRRRLPLPVQNAPSETSEEEPKRSPAQQESNQAEASKEVAESNSCKFPAGIKIINHPTMPNTQVVAIPNNANIHSIITALTAKGKESGSSGPNKFILISCGGAPTQPPGLRPQTQTSYDAKRTEVTLETLGPKPAARDVNLPRPPGALCEQKRETCDGEAAGCTINNSLSNIQWLRKMSSDGLGSRSIKQEMEEKENCHLEQRQVKVEEPSRPSASWQNSVSERPPYSYMAMIQFAINSTERKRMTLKDIYTWIEDHFPYFKHIAKPGWKNSIRHNLSLHDMFVRETSANGKVSFWTIHPSANRYLTLDQVFKQQQKRPNPELRRNMTIKTELPLGARRKMKPLLPRVSSYLVPIQFPVNQSLVLQPSVKVPLPLAASLMSSELARHSKRVRIAPKVLLAEEGIAPLSSAGPGKEEKLLFGEGFSPLLPVQTIKEEEIQPGEEMPHLARPIKVESPPLEEWPSPAPSFKEESSHSWEDSSQSPTPRPKKSYSGLRSPTRCVSEMLVIQHRERRERSRSRRKQHLLPPCVDEPELLFSEGPSTSRWAAELPFPADSSDPASQLSYSQEVGGPFKTPIKETLPISSTPSKSVLPRTPESWRLTPPAKVGGLDFSPVQTSQGASDPLPDPLGLMDLSTTPLQSAPPLESPQRLLSSEPLDLISVPFGNSSPSDIDVPKPGSPEPQVSGLAANRSLTEGLVLDTMNDSLSKILLDISFPGLDEDPLGPDNINWSQFIPELQ
notes: also called FKHL16; FOXM1B
  binding result: no binding

Source: patent US20170051281A1 (TRUSTEES OF COLUMBIA UNIVERSITY IN THE CITY OF NEW YORK, published 2017)
